Where two headings read alike, the source gives them in different places.
What was measured:
[1] = target: human MHC class II β chain (human)
[2] = target: human MHC class II β chain (human); remark: listed apart in the source

Row | Substance | Plaques/10^6 PBMC (anti-SRBC antibody formation, hemolytic plaque assay) (Plaques/10^6 PBMC) [1] | Plaques/10^6 PBMC (anti-SRBC antibody formation, hemolytic plaque assay) (Plaques/10^6 PBMC) [2]
1 | BZLF2/Fc fusion protein | 0 | 
2 | IL-4 receptor/Fc fusion protein | 788 | 
3 | Tie/Fc (Fc fusion) |  | 606

Reference: patent US5726286
